Assay [1] deals with CRIPT^S4 (CRIPT mutants with substitutions to any of the first four cysteines), co-IP from mitotic HeLa cells. As to the kind of experiment: co-IP.
In assay [2] the target is CRIPT^L4 (CRIPT mutants with substitutions to any of the last four cysteines), co-IP from mitotic HeLa cells. As to the kind of experiment: co-IP.

“β-tubulin, endogenous, mitotic HeLa cells (from UniProt P07437 1-444) (natural protein)”: the fold of tubulin brought down relative to wild-type CRIPT in assay [1] and in assay [2] was > 2 fold each time.

For the substance “α-tubulin, endogenous, mitotic HeLa cells (from UniProt P68363 1-451) (natural protein)”, the fold of tubulin brought down relative to wild-type CRIPT in assay [1] and in assay [2] was > 2 fold throughout.

For the origin of these results see publication doi:10.1101/869123.
